Source: the RNAGym collection of RNA variant scans (doi:10.7554/elife.80360)

B1: HDV Ribozyme (parent)
chain: GGCCGGCAUGGUCCCAGCCUCCUCGCUGGCGCCGGCUGGGCAACAUUCCGAGGGGACCGUCCCCUCGGUAAUGGCGAAUGGGACCCA

Variants of: B1
Assay: self-cleavage, relative activity (ratio to wild type); higher = more cleavage; co-transcriptional

Row | Variant | self-cleavage
1 | GGCCGGCAUGGUCCCAGCCUCCUCGCUGGCGCCGGCUGGGCAACAUUCCGAUGGGAACGUCCCCUCGGUAAUGGCGAAUGGGACCCA | 0.903
2 | GGACGGAAUGGUCCCAGCCUCCUCGCUGGCGCCGGCUGGGCAACAUUCCGAGGGGACCGUCCCCUCGGUAAUGGCGAAUGGGACCCA | 0.044
3 | GGCCGGCAUGGUCCCAGCCUCCUCGCGGGCGCCGGCUGGGCAACAUUCCGAGGGGACCGUCCCCUCGGUAAUGACGAAUGGGACCCA | 0.229
4 | GGCCGGCAUGGUCCCAGCCUCCUCGCUGGCGCCGGCUGGGCAAAAUUCCGAGGGGACCGUCCCCUCGGUAAGGGCGAAUGGGACCCA | 0.431
5 | GGCCGGCAUGGUCCCAGCCUCCUCGCUGGCGCCGGCUGGGCAACAUACCGAGGGGAGCGUCCCCUCGGUAAUGGCGAAUGGGACCCA | 0.898
6 | GGCCGGCAUGGUACCAGCCUCCUCGCUGGCGCCGGCUGGGCAACAUUCCGAGGGGAACGUCCCCUCGGUAAUGGCGAAUGGGACCCA | 0.185
7 | GGCCGGCAUGGUCCCAGCCUCCGCGCUGGCGCCGGCUGGUCAACAUUCCGAGGGGACCGUCCCCUCGGUAAUGGCGAAUGGGACCCA | 0.431
8 | GGCCGGCAUGGUCCCAGCCUCCUCGAUGGCGCCGGCUGGGCAACAUUCCGAGGGGACCAUCCCCUCGGUAAUGGCGAAUGGGACCCA | 1
9 | GGCCGGCAUGGUCCCAGCCUCCUCGCUGGCACCGGCUUGGCAACAUUCCGAGGGGACCGUCCCCUCGGUAAUGGCGAAUGGGACCCA | 0.0702
10 | GGCCGGCAUGGUCCCAGCCUCCUCGCUGGCGCCGGCUAGGCAACAUUCCGAGGGGACCGUCCCCUCGGUUAUGGCGAAUGGGACCCA | 0.148
11 | GGCCGGCAUGGUCCCAGCCUCCUCGCUGGCGCCGGCUGGGCAACAUUACGAGGGGAGCGUCCCCUCGGUAAUGGCGAAUGGGACCCA | 1.18
12 | GGCCGGCAUGGUCCCAGCCUCCUCGCUGGGGCCGGCUGGGCAACAUUCCGAGGGGACCGUCCCCUCAGUAAUGGCGAAUGGGACCCA | 0.0287
13 | GGCCGGCAUGUUCCCAGCCUCCUCGCUGGCGCCGGCUGGGCAACAUUCCGAGGGGACCGUCCCCUCGGUAAUGGCGAAUGGGACCAA | 0.489
14 | GGCCGGCAUGGUCCCAGCCUCCUCGCUAGCGCCGGCUGGGCAACAUUCCGAGGGGACCGUCCCCUCGGUAAUGGCGAAUGGAACCCA | 0.0604
15 | GGCCGGCAUGGUCCCAGCCUCCUCGCUGGCGCCGGCUGGGCAACAUUCCGAGAGGACCGUCCCGUCGGUAAUGGCGAAUGGGACCCA | 0.769
16 | GGCCGGCAUGGUCCCAGCCUCCUCGCUGGCCCCGGCUGGGCAACAUUCCGAGGGGACCGUCCCCUCGGUAACGGCGAAUGGGACCCA | 0.262
17 | GGCCGGCAUGGUCCCGGCCUCCUCACUGGCGCCGGCUGGGCAACAUUCCGAGGGGACCGUCCCCUCGGUAAUGGCGAAUGGGACCCA | 0.192
18 | GGCCGGCAUGGUCCCAGCCUCCUCGGUGGCUCCGGCUGGGCAACAUUCCGAGGGGACCGUCCCCUCGGUAAUGGCGAAUGGGACCCA | 0.48
19 | GGCCGGCAUGGUCCCAGCCUCCUCGCUGGCGCCGGCUGGGCAACAUUCCGAGGGGACCGUCCCCUCGGUAAUUCCGAAUGGGACCCA | 0.126
20 | GGCCGGCAUGGUCCCAGCCUCCUCGCUGGCGCCGGCUGGGCAACAUUCCGAGGGGACCGUCCCCUCGGUAAUGGCUAAUGGGACCCG | 1.13
21 | GGCCGGCAUGGUCCCAGCCUCCUCGCUGGCGCCGGCUGGGCAACAUUCCGAGGGGACUGACCCCUCGGUAAUGGCGAAUGGGACCCA | 0.845
22 | GGCCGGCAUGGUCCGAGCCUCCUCGCUGGCGCCGGCUGGGCAACAUUCCGAGGGGACCGUCCCCUCGGUGAUGGCGAAUGGGACCCA | 0.554

Row | Variant | self-cleavage
23 | AGCCGGCAUGGUCCCAGUCUCCUCGCUGGCGCCGGCUGGGCAACAUUCCGAGGGGACCGUCCCCUCGGUAAUGGCGAAUGGGACCCA | 0.0475
24 | GGCCGGCAUGGUCCCAGCCUCCUCUCUGGCGCCGGCUGGGCAACAUUCCGAGCGGACCGUCCCCUCGGUAAUGGCGAAUGGGACCCA | 0.155
25 | GGCCGGCAUGGUCACAGCCUCCUCGCUCGCGCCGGCUGGGCAACAUUCCGAGGGGACCGUCCCCUCGGUAAUGGCGAAUGGGACCCA | 0.142
26 | GGCCGGCAUGGUCCCAGCCUCCUCGCUGGCGCCGGCUGGGCAACAUUCCGAGGGGACCGUCCCGUCGGUAAAGGCGAAUGGGACCCA | 0.614
27 | GGCCGGCAUCGUCCCAGCCUCCUCGCUGGCGCCGGCUGGGCAACAUUCCGAGUGGACCGUCCCCUCGGUAAUGGCGAAUGGGACCCA | 0.91
28 | GGCCGGCAUGGUCCCAGCCUCCUCGCUGGCGCCGGCUGGGCAACAAUCCGAGGGGACCGUCCCCUCGGUAAUCGCGAAUGGGACCCA | 0.317
29 | GGCCGGCAUGGUCCCAGCCUCCUCGCUGGCGCCGGCUGGGCAACAUUCCGAGGGGACAGUCCCCUCGGUAAUGGCGAAGGGGACCCA | 0.772
30 | GGCCGGGAUGGUCCCAGCCUCCCCGCUGGCGCCGGCUGGGCAACAUUCCGAGGGGACCGUCCCCUCGGUAAUGGCGAAUGGGACCCA | 0
31 | GGCCGGCAUGGUCCCAGCCUCCUCACUGGCGCCGGCUGGGCAACAUUCCGAGGGGACCGUACCCUCGGUAAUGGCGAAUGGGACCCA | 0.201
32 | GGCCGGCAUGGUCCCAGCGUCCUCGCUGGCGCCGGCUCGGCAACAUUCCGAGGGGACCGUCCCCUCGGUAAUGGCGAAUGGGACCCA | 0.0639
33 | GGCCGGCAUGGUCCCAGCCUCCUAGCUGGCGCCGGCUGGGCAACAUUCCGAGGGGACCGUCCCCUCGGUAAUGGCGAAUGCGACCCA | 0.17
34 | GGCCGGCAUGGUCCCAGCCUCCUCGCUGGCGGCGGCUGGGCUACAUUCCGAGGGGACCGUCCCCUCGGUAAUGGCGAAUGGGACCCA | 0.0594
35 | GGCCGGCAUGGUCCCAGCCUCCUCGCUGGCGCCGGCUGGGCAACAUUCCGAGAGGACCGUCCCCUCCGUAAUGGCGAAUGGGACCCA | 1.04
36 | GGCCGGCAUGGUCCCAGCCUCCUCGCUGGCGCCGGCUGGGCAACAUUCCAAGGGGACCGUCCCCUCGGGAAUGGCGAAUGGGACCCA | 0.76
37 | GGCCGGCAUGAUCCCAGCCUCCUCGCUGGCGCCGGCUGGGCAACAUUCCGAGGGGACCGUCGCCUCGGUAAUGGCGAAUGGGACCCA | 0.437
38 | GGCCGGCAUGGUCCCAGCCUCCUCGCUGGCGCCGUCUGGGCACCAUUCCGAGGGGACCGUCCCCUCGGUAAUGGCGAAUGGGACCCA | 0.208
39 | GACCGGCAUGGUCCCAGCCUCCCCGCUGGCGCCGGCUGGGCAACAUUCCGAGGGGACCGUCCCCUCGGUAAUGGCGAAUGGGACCCA | 0.0511
40 | GGCCGGCAUGGUCCCAGCCUCCUCGCUGUCGCCGGCUGGGCAACAAUCCGAGGGGACCGUCCCCUCGGUAAUGGCGAAUGGGACCCA | 0.0665
41 | GGCCGGCAUGGUCGCAGCCUCCUCGCUGGCGCCGGCUGGGAAACAUUCCGAGGGGACCGUCCCCUCGGUAAUGGCGAAUGGGACCCA | 0.776
42 | GGCCGGCAUGGUCCCAGCCUCCUCGCUGGCGCCGGCUGGGCAACAUUCCGAGGGGACCGUCCCCCCGGUAAUGACGAAUGGGACCCA | 0.456
43 | GGCCGGCAUGGUCCCAGCCGCCUCGCUGGCGCCGGCUGGGCAACAUUCCGAGGGGACCGUCCCCUCGGUAAUGGUGAAUGGGACCCA | 0.0875
44 | GGCCGGCAUGGUCCCAGCCUCCUCGCUGGCGCCGGCUGGGCAACAUUCCAAGGGGACCGUCCCCUCGGUAAUAGCGAAUGGGACCCA | 0.623

Row | Variant | self-cleavage
45 | GGCCGGCAUGGCCCCAGCCUCCUCGCUGGCGCCGGCUGGGCAACAUUCCGAGGGGACCGUCCCCUCGGUAAUGGCGAAUGGGAGCCA | 0.391
46 | GGCCGGCAUGGUCCCAGCCUCCUUGCUGGCGCCGGCUGGGCAACAUUCCGAGGGGACCGUCCCCUCGGUAAUGGCGAAUCGGACCCA | 0.179
47 | GGGCGGCAUGGUCCCAGCCUCCUCGCUGGCGCCGGCUGGGCAACAUUCCGAGGGGGCCGUCCCCUCGGUAAUGGCGAAUGGGACCCA | 0.692
48 | GGCCGGCAUGGUCCCGGCCUCCUCGCUGGCGCCGGCUGGGCAACAUCCCGAGGGGACCGUCCCCUCGGUAAUGGCGAAUGGGACCCA | 0.962
49 | GGCCGGCAUGGUCCCAGCCUCCUGGCUGGCGCCGGCUGGGCAACAUUCCGAGGGGACCGUCCCCUCGGGAAUGGCGAAUGGGACCCA | 0.332
50 | GGCCGGCAUGGUCCCAGCCUCCUCGGUGGCGCCGGCUGGGCAACGUUCCGAGGGGACCGUCCCCUCGGUAAUGGCGAAUGGGACCCA | 1.04
51 | GGCCGGCAUGGUCCCAGCCUCCUCGCUGGCGCCGGCUUGGCAACAUUCCGAGGGGACCGUCCCCUCGGUAAUGCCGAAUGGGACCCA | 0.115
52 | GGCCGGCAUGUUCCCAGCCUCCUCGCUGGCGCCGGCUGGGCAACAUUCCGCGGGGACCGUCCCCUCGGUAAUGGCGAAUGGGACCCA | 0.324
53 | GGCCGGCAUGGUCCCAGCCUCCUCGCUGGCGCCGGCUGGGCAGCAUUCCGAGGGGACCGUCCCCACGGUAAUGGCGAAUGGGACCCA | 0.554
54 | GGCCGGCAUGGUCCCAGCCUCCUCGCUGGAGCCGGCUGGGCAACCUUCCGAGGGGACCGUCCCCUCGGUAAUGGCGAAUGGGACCCA | 0.0678
55 | GGCCAGCAUGGUCCCAGCCUCCUCGCUGGCGCCGGCUGGGCAAUAUUCCGAGGGGACCGUCCCCUCGGUAAUGGCGAAUGGGACCCA | 0.0627
56 | GGCCGGCAUGGUCCCAGCCUCCUCGCUGGCGCCCGCUGGGCAACAUUCCGAGGGUACCGUCCCCUCGGUAAUGGCGAAUGGGACCCA | 0.113
57 | GGCCGGCAUGGUCCCUGCCUCCUCGCUGGCGCCGGCUGGGCAACAUUCCGACGGGACCGUCCCCUCGGUAAUGGCGAAUGGGACCCA | 0.696
58 | GGCCGGCAUGGUCCCAGCCUCCUAGAUGGCGCCGGCUGGGCAACAUUCCGAGGGGACCGUCCCCUCGGUAAUGGCGAAUGGGACCCA | 0.743
59 | GGCCGGCAUGGACCCAGCCUCCUCGCUGGCGCCGGCUGGGCAACAUUCCGAGGGGACCGUCCCCUCGGUAAUGUCGAAUGGGACCCA | 0.101
60 | GGCCGGCAUGGACCCAGCCUCCUCGCUGGCGCCGGCUGGGCAACAUUCCGAGGGGACCGUCCACUCGGUAAUGGCGAAUGGGACCCA | 0.519
61 | GGCCGGCAUGGUCCCAGCCUCCUCGCUGGCGCCGGCUGGGCAACAUUCCGAGGGGACCGUCCCCUCGGUAAUGUCGAAUGGAACCCA | 0.217
62 | GGCCGGUAUGGUCCCACCCUCCUCGCUGGCGCCGGCUGGGCAACAUUCCGAGGGGACCGUCCCCUCGGUAAUGGCGAAUGGGACCCA | 0
63 | GACCGGCAUGGUCCCAGCCUCCUCGCUGGCGCCGGCUGGGCAACAUUCCGAGGGGACCGUCCCCUCGGUAAUGGCGAAUGGGACCUA | 0.277
64 | GGCCGGCGUGGUCCCAGCCUCCUCGCUGGCGCCGGCUGGGCAACAUUCCGAGGGGACCGUCGCCUCGGUAAUGGCGAAUGGGACCCA | 0.489
